{
  "source": "patent US20230061604A1",
  "about": "(HIFIBIO HK, published 2023)",
  "binders": {"B1": {"name": "anti-OX40 antibody HFB10-1E1hG1 (antibody, human IgG1, kappa, V domains shown)", "VH": "not shown", "VL": "DIQMTQSPSSVSASVGDRVTITCRASQGISSWLAWYQQKPGKAPKLLIYAASSLQSGVPSRFSGSGSGTDFTLTISSLQPEDFATYYCQQANSFPLTFGGGTKLEIKR"}, "B2": {"name": "OX40L (trimeric OX40L recombinant protein) (ligand, UniProt P23510 51-183, looked up)", "chain": "QVSHRYPRIQSIKVQFTEYKKEKGFILTSQKEDEIMKVQNNSVIINCDGFYLISLKGYFSQEVNISLHYQKDEEPLFQLKKVRSVNSLMVASLTYKDKVYLNVTTDNTSLDDFHVNGGELILIHQNPGEFCVL", "notes": "Bought recombinant protein; also called OX40 ligand"}},
  "key": {"[1]": {"target": "T1, human OX40 protein expressed on the surface of cells (human, UniProt P43489 29-277)", "T1 sequence (looked up)": "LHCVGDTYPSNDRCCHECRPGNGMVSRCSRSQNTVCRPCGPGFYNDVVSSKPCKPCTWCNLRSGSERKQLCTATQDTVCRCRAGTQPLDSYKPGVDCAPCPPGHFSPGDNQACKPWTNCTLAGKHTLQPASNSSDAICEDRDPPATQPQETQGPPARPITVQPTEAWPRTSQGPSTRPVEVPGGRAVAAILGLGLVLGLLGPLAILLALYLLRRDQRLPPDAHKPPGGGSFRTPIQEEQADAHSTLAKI", "test": "cell-based or functional assay"}, "[2]": {"target": "T2, biotinylated OX40 recombinant protein (UniProt P43489 29-216, limits assumed, biotinylated (site not stated))", "T2 construct": "also called Biotin-OX40", "T2 sequence (looked up)": "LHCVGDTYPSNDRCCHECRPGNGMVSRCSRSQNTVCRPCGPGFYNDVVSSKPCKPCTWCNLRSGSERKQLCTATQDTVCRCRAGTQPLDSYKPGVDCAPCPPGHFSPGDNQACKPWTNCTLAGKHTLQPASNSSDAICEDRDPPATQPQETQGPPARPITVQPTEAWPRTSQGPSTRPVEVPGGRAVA", "test": "ELISA: OX40L coated, biotinylated OX40 titrated (x axis is its concentration in nM), OD 450nm"}},
  "data": [
    {"binder": "B1", "values": [
      {"measurement": "EC50 (MFI of GFP), NF-kb GFP Jurkat reporter cells, cross-linked with anti-human IgG", "setting": "[1]", "value": 2.9, "unit": "nM"},
      {"measurement": "EC50 of IL-2 secretion, primary CD4+ T cells pre-activated with anti-CD3 and anti-CD28, cross-linked", "setting": "[1]", "value": 0.2, "unit": "nM"}
    ]},
    {"binder": "B2", "values": [
      {"measurement": "EC50 (MFI of GFP), NF-kb GFP Jurkat reporter cells, without cross-linking", "setting": "[1]", "value": 45, "unit": "nM"},
      {"measurement": "EC50 (read off the curve)", "setting": "[2]", "value": "~0.5", "unit": "nM"}
    ]}
  ]
}
